From article PMC10397247
Values belong to the binder of their own block, whether it stands above or below them.

Experiments:
[1] = target: T1, Core_NINN-es_KEKK; test: two-hybrid library CCmax; conditions: mean of both orientations;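 also: natural log of median RNA to DNA barcode read ratio; higher means stronger binding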
T1 chain: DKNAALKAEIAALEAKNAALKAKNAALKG

[2] = target: T2, Core_NNIN-es_KEEE; test: two-hybrid library CCmax;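 also: natural log of median RNA to DNA barcode read ratio; higher means stronger binding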
T2 chain: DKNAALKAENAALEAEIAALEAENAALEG

[3] = target: T3, 4H1046-bH; test: two-hybrid library CCNG1; conditions: mean of both orientations;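 also: natural log of median RNA to DNA barcode read ratio; higher means stronger binding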
T3 chain: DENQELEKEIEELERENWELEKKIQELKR

[4] = target: T4, 4H2568-bH; test: two-hybrid library CCNG1;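 also: natural log of median RNA to DNA barcode read ratio; higher means stronger binding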
T4 chain: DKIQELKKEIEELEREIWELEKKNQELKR

[5] = target: T5, 4H344-bH; test: two-hybrid library CCNG1;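 also: natural log of median RNA to DNA barcode read ratio; higher means stronger binding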
T5 chain: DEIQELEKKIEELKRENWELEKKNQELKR

[6] = target: T6, 4H3907-bH; test: two-hybrid library CCNG1;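 also: natural log of median RNA to DNA barcode read ratio; higher means stronger binding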
T6 chain: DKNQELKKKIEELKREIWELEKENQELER

[7] = target: T7, 4H3961-bH; test: two-hybrid library CCNG1; conditions: mean of both orientations
T7 chain: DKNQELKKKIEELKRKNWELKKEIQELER

[8] = target: T8, 4H2745-bH; test: two-hybrid library CCNG1
T8 chain: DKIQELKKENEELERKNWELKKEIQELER

[9] = target: T9, 4H1072-bH; test: two-hybrid library CCNG1
T9 chain: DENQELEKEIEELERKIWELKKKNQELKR

[10] = target: T10, 4H470-bH; test: two-hybrid library CCNG1
T10 chain: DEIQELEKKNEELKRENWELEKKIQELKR

[11] = target: T11, 4H363-bH; test: two-hybrid library CCNG1
T11 chain: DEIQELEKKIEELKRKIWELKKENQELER

[12] = target: T12, 4H2619-bH; test: two-hybrid library CCNG1
T12 chain: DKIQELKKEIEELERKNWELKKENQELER

[13] = target: T13, P2-AA-1HAA-K; test: two-hybrid library CCmax; conditions: mean of both orientations
T13 chain: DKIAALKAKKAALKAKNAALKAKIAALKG

[14] = target: T14, P2-AA-1HAA-T; test: two-hybrid library CCmax; conditions: mean of both orientations
T14 chain: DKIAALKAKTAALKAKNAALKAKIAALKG

[15] = target: T15, P2-AA-1HAA-D; test: two-hybrid library CCmax; conditions: mean of both orientations
T15 chain: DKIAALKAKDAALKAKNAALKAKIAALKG

[16] = target: T16, P2-AA-1HAA-R; test: two-hybrid library CCmax; conditions: mean of both orientations
T16 chain: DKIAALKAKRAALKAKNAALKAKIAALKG

[17] = target: T17, P2-AA-1HAA-I; test: two-hybrid library CCmax; conditions: mean of both orientations
T17 chain: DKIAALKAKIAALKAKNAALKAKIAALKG

[18] = target: T18, P2-AA-1HAA-S; test: two-hybrid library CCmax; conditions: mean of both orientations
T18 chain: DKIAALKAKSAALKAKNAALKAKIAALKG

[19] = target: T19, P2-AA-1HAA-L; test: two-hybrid library CCmax; conditions: mean of both orientations
T19 chain: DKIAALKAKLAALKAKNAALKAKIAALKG

[20] = target: T20, P2-AA; test: two-hybrid library CCmax; conditions: mean of both orientations
T20 chain: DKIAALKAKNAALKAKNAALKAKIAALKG

- interaction score [1]: 1.5
B1: Core_NINN-es_EKEE (peptide)
chain: DENAALEAKIAALKAENAALEAENAALEG

- interaction score [2]: 1.83
B2: Core_NNIN-es_EKKK (peptide)
chain: DENAALEAKNAALKAKIAALKAKNAALKG

- interaction score [3]: 0.287
- interaction score [4]: 1.03
- interaction score [5]: 1.33
- interaction score [6]: -0.121
- interaction score [7]: -0.386
- interaction score [8]: 0.917
- interaction score [9]: -0.477
- interaction score [10]: 0.405
- interaction score [11]: -1.16
- interaction score [12]: 0.439
B3: 4H1046-bH (peptide)
chain: DENQELEKEIEELERENWELEKKIQELKR

- interaction score [13]: 1.56
- interaction score [14]: 1.59
- interaction score [15]: 0.443
- interaction score [16]: 1.66
- interaction score [17]: 1.89
- interaction score [18]: 1.57
- interaction score [19]: 2.16
- interaction score [20]: 2.18
B4: P1-AA-1HAA-D (peptide)
chain: DEIAALEAEDAALEAENAALEAEIAALEG
